The record followed here is patent US20110294738A1, “PTHR1 RECEPTOR COMPOUNDS” (priority 2008, published 2011).

* marks the point of attachment. Palmitoyl = CCCCCCCCCCCCCCCC(=O)*

B1: Compound 60 (peptide)
peptide: Palmitoyl-RETNAGRSDTRQQYRK-NH2
SMILES: CCCCCCCCCCCCCCCC(=O)N[C@@H](CCCNC(=N)N)C(=O)N[C@@H](CCC(=O)O)C(=O)N[C@H](C(=O)N[C@@H](CC(N)=O)C(=O)N[C@@H](C)C(=O)NCC(=O)N[C@@H](CCCNC(=N)N)C(=O)N[C@@H](CO)C(=O)N[C@@H](CC(=O)O)C(=O)N[C@H](C(=O)N[C@@H](CCCNC(=N)N)C(=O)N[C@@H](CCC(N)=O)C(=O)N[C@@H](CCC(N)=O)C(=O)N[C@@H](Cc1ccc(O)cc1)C(=O)N[C@@H](CCCNC(=N)N)C(=O)N[C@@H](CCCCN)C(N)=O)[C@@H](C)O)[C@@H](C)O
B2: Compound 64 (peptide)
peptide: Palmitoyl-TNAGRSDTRQQYRKLLKS-NH2
SMILES: CCCCCCCCCCCCCCCC(=O)N[C@H](C(=O)N[C@@H](CC(N)=O)C(=O)N[C@@H](C)C(=O)NCC(=O)N[C@@H](CCCNC(=N)N)C(=O)N[C@@H](CO)C(=O)N[C@@H](CC(=O)O)C(=O)N[C@H](C(=O)N[C@@H](CCCNC(=N)N)C(=O)N[C@@H](CCC(N)=O)C(=O)N[C@@H](CCC(N)=O)C(=O)N[C@@H](Cc1ccc(O)cc1)C(=O)N[C@@H](CCCNC(=N)N)C(=O)N[C@@H](CCCCN)C(=O)N[C@@H](CC(C)C)C(=O)N[C@@H](CC(C)C)C(=O)N[C@@H](CCCCN)C(=O)N[C@@H](CO)C(N)=O)[C@@H](C)O)[C@@H](C)O
B3: Compound 66 (peptide)
peptide: Palmitoyl-RSDTRQQYRKLLKS-NH2
SMILES: CCCCCCCCCCCCCCCC(=O)N[C@@H](CCCNC(=N)N)C(=O)N[C@@H](CO)C(=O)N[C@@H](CC(=O)O)C(=O)N[C@H](C(=O)N[C@@H](CCCNC(=N)N)C(=O)N[C@@H](CCC(N)=O)C(=O)N[C@@H](CCC(N)=O)C(=O)N[C@@H](Cc1ccc(O)cc1)C(=O)N[C@@H](CCCNC(=N)N)C(=O)N[C@@H](CCCCN)C(=O)N[C@@H](CC(C)C)C(=O)N[C@@H](CC(C)C)C(=O)N[C@@H](CCCCN)C(=O)N[C@@H](CO)C(N)=O)[C@@H](C)O
B4: Compound 59 (peptide)
peptide: Palmitoyl-RETNAGRSDTRQQYRKLL-NH2
SMILES: CCCCCCCCCCCCCCCC(=O)N[C@@H](CCCNC(=N)N)C(=O)N[C@@H](CCC(=O)O)C(=O)N[C@H](C(=O)N[C@@H](CC(N)=O)C(=O)N[C@@H](C)C(=O)NCC(=O)N[C@@H](CCCNC(=N)N)C(=O)N[C@@H](CO)C(=O)N[C@@H](CC(=O)O)C(=O)N[C@H](C(=O)N[C@@H](CCCNC(=N)N)C(=O)N[C@@H](CCC(N)=O)C(=O)N[C@@H](CCC(N)=O)C(=O)N[C@@H](Cc1ccc(O)cc1)C(=O)N[C@@H](CCCNC(=N)N)C(=O)N[C@@H](CCCCN)C(=O)N[C@@H](CC(C)C)C(=O)N[C@@H](CC(C)C)C(N)=O)[C@@H](C)O)[C@@H](C)O
B5: Compound 3 (peptide)
peptide: Palmitoyl-LAYFRRLHSTRNY-NH2
SMILES: CCCCCCCCCCCCCCCC(=O)N[C@@H](CC(C)C)C(=O)N[C@@H](C)C(=O)N[C@@H](Cc1ccc(O)cc1)C(=O)N[C@@H](Cc1ccccc1)C(=O)N[C@@H](CCCNC(=N)N)C(=O)N[C@@H](CCCNC(=N)N)C(=O)N[C@@H](CC(C)C)C(=O)N[C@@H](Cc1c[nH]cn1)C(=O)N[C@@H](CO)C(=O)N[C@H](C(=O)N[C@@H](CCCNC(=N)N)C(=O)N[C@@H](CC(N)=O)C(=O)N[C@@H](Cc1ccc(O)cc1)C(N)=O)[C@@H](C)O
B6: Compound 61 (peptide)
peptide: Palmitoyl-RETNAGRSDTRQQYRF-NH2
SMILES: CCCCCCCCCCCCCCCC(=O)N[C@@H](CCCNC(=N)N)C(=O)N[C@@H](CCC(=O)O)C(=O)N[C@H](C(=O)N[C@@H](CC(N)=O)C(=O)N[C@@H](C)C(=O)NCC(=O)N[C@@H](CCCNC(=N)N)C(=O)N[C@@H](CO)C(=O)N[C@@H](CC(=O)O)C(=O)N[C@H](C(=O)N[C@@H](CCCNC(=N)N)C(=O)N[C@@H](CCC(N)=O)C(=O)N[C@@H](CCC(N)=O)C(=O)N[C@@H](Cc1ccc(O)cc1)C(=O)N[C@@H](CCCNC(=N)N)C(=O)N[C@@H](Cc1ccccc1)C(N)=O)[C@@H](C)O)[C@@H](C)O
B7: Compound 70 (peptide)
peptide: Palmitoyl-TNAGRSDTRQQYRF-NH2
SMILES: CCCCCCCCCCCCCCCC(=O)N[C@H](C(=O)N[C@@H](CC(N)=O)C(=O)N[C@@H](C)C(=O)NCC(=O)N[C@@H](CCCNC(=N)N)C(=O)N[C@@H](CO)C(=O)N[C@@H](CC(=O)O)C(=O)N[C@H](C(=O)N[C@@H](CCCNC(=N)N)C(=O)N[C@@H](CCC(N)=O)C(=O)N[C@@H](CCC(N)=O)C(=O)N[C@@H](Cc1ccc(O)cc1)C(=O)N[C@@H](CCCNC(=N)N)C(=O)N[C@@H](Cc1ccccc1)C(N)=O)[C@@H](C)O)[C@@H](C)O
B8: Compound 69 (peptide)
peptide: Palmitoyl-TNAGRSDTRQQYRK-NH2
SMILES: CCCCCCCCCCCCCCCC(=O)N[C@H](C(=O)N[C@@H](CC(N)=O)C(=O)N[C@@H](C)C(=O)NCC(=O)N[C@@H](CCCNC(=N)N)C(=O)N[C@@H](CO)C(=O)N[C@@H](CC(=O)O)C(=O)N[C@H](C(=O)N[C@@H](CCCNC(=N)N)C(=O)N[C@@H](CCC(N)=O)C(=O)N[C@@H](CCC(N)=O)C(=O)N[C@@H](Cc1ccc(O)cc1)C(=O)N[C@@H](CCCNC(=N)N)C(=O)N[C@@H](CCCCN)C(N)=O)[C@@H](C)O)[C@@H](C)O
B9: Compound 65 (peptide)
peptide: Palmitoyl-AGRSDTRQQYRKLLKS-NH2
SMILES: CCCCCCCCCCCCCCCC(=O)N[C@@H](C)C(=O)NCC(=O)N[C@@H](CCCNC(=N)N)C(=O)N[C@@H](CO)C(=O)N[C@@H](CC(=O)O)C(=O)N[C@H](C(=O)N[C@@H](CCCNC(=N)N)C(=O)N[C@@H](CCC(N)=O)C(=O)N[C@@H](CCC(N)=O)C(=O)N[C@@H](Cc1ccc(O)cc1)C(=O)N[C@@H](CCCNC(=N)N)C(=O)N[C@@H](CCCCN)C(=O)N[C@@H](CC(C)C)C(=O)N[C@@H](CC(C)C)C(=O)N[C@@H](CCCCN)C(=O)N[C@@H](CO)C(N)=O)[C@@H](C)O
B10: Compound 71 (peptide)
peptide: Palmitoyl-SGRVLATKLR-NH2
SMILES: CCCCCCCCCCCCCCCC(=O)N[C@@H](CO)C(=O)NCC(=O)N[C@@H](CCCNC(=N)N)C(=O)N[C@H](C(=O)N[C@@H](CC(C)C)C(=O)N[C@@H](C)C(=O)N[C@H](C(=O)N[C@@H](CCCCN)C(=O)N[C@@H](CC(C)C)C(=O)N[C@@H](CCCNC(=N)N)C(N)=O)[C@@H](C)O)C(C)C
B11: Compound 67 (peptide)
peptide: Palmitoyl-DTRQQYRKLLKS-NH2
SMILES: CCCCCCCCCCCCCCCC(=O)N[C@@H](CC(=O)O)C(=O)N[C@H](C(=O)N[C@@H](CCCNC(=N)N)C(=O)N[C@@H](CCC(N)=O)C(=O)N[C@@H](CCC(N)=O)C(=O)N[C@@H](Cc1ccc(O)cc1)C(=O)N[C@@H](CCCNC(=N)N)C(=O)N[C@@H](CCCCN)C(=O)N[C@@H](CC(C)C)C(=O)N[C@@H](CC(C)C)C(=O)N[C@@H](CCCCN)C(=O)N[C@@H](CO)C(N)=O)[C@@H](C)O
B12: Compound 68 (peptide)
peptide: Palmitoyl-TNAGRSDTRQQYRKLL-NH2
SMILES: CCCCCCCCCCCCCCCC(=O)N[C@H](C(=O)N[C@@H](CC(N)=O)C(=O)N[C@@H](C)C(=O)NCC(=O)N[C@@H](CCCNC(=N)N)C(=O)N[C@@H](CO)C(=O)N[C@@H](CC(=O)O)C(=O)N[C@H](C(=O)N[C@@H](CCCNC(=N)N)C(=O)N[C@@H](CCC(N)=O)C(=O)N[C@@H](CCC(N)=O)C(=O)N[C@@H](Cc1ccc(O)cc1)C(=O)N[C@@H](CCCNC(=N)N)C(=O)N[C@@H](CCCCN)C(=O)N[C@@H](CC(C)C)C(=O)N[C@@H](CC(C)C)C(N)=O)[C@@H](C)O)[C@@H](C)O
B13: Compound 62 (peptide)
peptide: Palmitoyl-RETNAGRSDTRQQY-NH2
SMILES: CCCCCCCCCCCCCCCC(=O)N[C@@H](CCCNC(=N)N)C(=O)N[C@@H](CCC(=O)O)C(=O)N[C@H](C(=O)N[C@@H](CC(N)=O)C(=O)N[C@@H](C)C(=O)NCC(=O)N[C@@H](CCCNC(=N)N)C(=O)N[C@@H](CO)C(=O)N[C@@H](CC(=O)O)C(=O)N[C@H](C(=O)N[C@@H](CCCNC(=N)N)C(=O)N[C@@H](CCC(N)=O)C(=O)N[C@@H](CCC(N)=O)C(=O)N[C@@H](Cc1ccc(O)cc1)C(N)=O)[C@@H](C)O)[C@@H](C)O

PTHR1 receptor, sequence (P25961 whole entry): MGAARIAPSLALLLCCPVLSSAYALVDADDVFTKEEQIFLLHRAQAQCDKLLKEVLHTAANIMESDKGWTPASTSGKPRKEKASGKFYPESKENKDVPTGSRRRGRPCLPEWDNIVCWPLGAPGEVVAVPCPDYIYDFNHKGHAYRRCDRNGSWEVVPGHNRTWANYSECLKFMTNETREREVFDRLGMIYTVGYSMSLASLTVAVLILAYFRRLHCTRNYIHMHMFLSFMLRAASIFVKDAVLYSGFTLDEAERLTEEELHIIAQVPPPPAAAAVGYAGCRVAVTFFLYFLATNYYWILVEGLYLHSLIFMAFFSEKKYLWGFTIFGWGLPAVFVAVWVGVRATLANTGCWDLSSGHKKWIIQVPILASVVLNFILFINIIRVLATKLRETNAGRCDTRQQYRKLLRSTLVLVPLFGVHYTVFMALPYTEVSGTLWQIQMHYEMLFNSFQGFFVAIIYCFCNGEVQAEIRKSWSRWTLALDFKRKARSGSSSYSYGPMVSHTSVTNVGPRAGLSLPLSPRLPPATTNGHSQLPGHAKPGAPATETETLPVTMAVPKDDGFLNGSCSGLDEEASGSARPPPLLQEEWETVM

The assay has as its target PTHR1 receptor.
B1: the Fold Shift of EC50 was determined as 3.3 fold and the Inhibition of Maximal Response turned out to be 4.3%.

For the molecule B2, the Fold Shift of EC50 came out at 7 fold and the Inhibition of Maximal Response was -0.1%.

As to B3, the Fold Shift of EC50 was determined as 16.4 fold and the Inhibition of Maximal Response is -39%.

For B4, the Fold Shift of EC50 worked out at 5.2 fold and the Inhibition of Maximal Response was 3%.

As for B5, the Fold Shift of EC50 came to 0.7 fold and the Inhibition of Maximal Response was -51.4%.

B6: the Fold Shift of EC50 stood at 0.7 fold and the Inhibition of Maximal Response was -47.6%.

In the case of B7, the Fold Shift of EC50 was determined as 2 fold and the Inhibition of Maximal Response was 15.1%.

Regarding B8, the Fold Shift of EC50 stood at 5.2 fold and the Inhibition of Maximal Response was found to be 2.5%.

In the case of B9, the Fold Shift of EC50 is 14.7 fold and the Inhibition of Maximal Response is -0.359.

On to B10, for which the Fold Shift of EC50 came to 0.8 fold and the Inhibition of Maximal Response came out at 13.5%.

As for B11, the Fold Shift of EC50 stood at 6 fold and the Inhibition of Maximal Response is 6.9%.

For B12, the Fold Shift of EC50 was found to be 12.4 fold and the Inhibition of Maximal Response is -0.0684.

Turning to B13, the Fold Shift of EC50 worked out at 1.1 fold and the Inhibition of Maximal Response is -5.4%.
